The target in the experiment is MBP + FGFR2 31-406 (ECD + TM) (human) (UniProt P21802). Briefly: SEC; main elution fraction (1.5 M NaCl, 0.1% DDM) of a heparin affinity column loaded first with FGF1 and then with refolded MBP-FGFR2 ECD + TM, run on size exclusion chromatography; peaks analysed by SDS-PAGE and western blot (anti-MBP, anti-His-tag).

Take “MBP + FGFR2 31-406 (ECD + TM) (from UniProt P21802 31-406) (domain or fragment)”: the stoichiometry N (usually a count of units in the complex or per binding partner) stood at 2.
